In patent US20070259402:

Tests used:
[1] = target: proFIX-Fc (FIX-Fc retaining the FIX propeptide; dimer or monomer form not given)
[2] = target: N297A version of FIX-Fc retaining the propeptide
[3] = target: proFIX-Fc monomer-dimer hybrid (FIX-Fc monomer retaining the propeptide)

Row | Protein | Propeptide Processing (Western blotting), CHO, transient transfection [1] | Propeptide Processing (Western blotting), HEK, transient transfection [1] | propeptide processing, Fc and propeptide Western blots, HEK 293 transient transfection (FIG. 8 lane 4, N297A Fc) [2] | Propeptide Processing (Western blotting), CHO, stable transfection [1] | peptide mapping (tryptic digest, LC/MS) for the propeptide indicator peptide (PIP), CHO stable line [1] | Propeptide Processing (Western blotting), HEK, stable transfection [2] | Propeptide Processing (Western blotting), HEK, stable transfection [1] | peptide mapping (tryptic digest, LC/MS) for the propeptide indicator peptide (PIP), HEK stable line [3]
1 | KEX2-SOL (soluble form of the yeast endoprotease KEX2, amino acids 1-675) (protein) LVSSQQIPLKDHTSRQYFAVESNETLSRLEEMHPNWKYEHDVRGLPNHYVFSKELLKLGKRSSLEELQGDNNDHILSVHDLFPRNDLFKRLPVPAPPMDSSLLPVKEAEDKLSINDPLFERQWHLVNPSFPGSDINVLDLWYNNITGAGVVAAIVDDGLDYENEDLKDNFCAEGSWDFNDNTNLPKPRLSDDYHGTRCAGEIAAKKGNNFCGVGVGYNAKISGIRILSGDITTEDEAASLIYGLDVNDIYSCSWGPADDGRHLQGPSDLVKKALVKGVTEGRDSKGAIYVFASGNGGTRGDNCNYDGYTNSIYSITIGAIDHKDLHPPYSEGCSAVMAVTYSSGSGEYIHSSDINGRCSNSHGGTSAAAPLAAGVYTLLLEANPNLTWRDVQYLSILSAVGLEKNADGDWRDSAMGKKYSHRYGFGKIDAHKLIEMSKTWENVNAQTWFYLPTLYVSQSTNSTEETLESVITISEKSLQDANFKRIEHVTVTVDIDTEIRGTTTVDLISPAGIISNLGVVRPRDVSSEGFKDWTFMSVAHWGENGVGDWKIKVKTTENGHRIDFHSWRLKLFGESIDSSKTETFVFGNDKEEVEPAATESTVSQYSASSTSISISATSTSSISIGVETSAIPQTTTASTDPDSDPNTPKKLSSPRQ | processes (cryptic cleavage) | does not fully process | FIX-Fc cotransfected with KEX2-SOL is not processed, as can be seen by the presence of propeptide in this material (lanes 3 and 4, bands present on both blots) |  |  |  |  | 
2 | PC7-SOL (soluble form of PC7, amino acids 1-663) (protein) LAGTGGPDGQGTGGPSWAVHLESLEGDGEEETLEQQADALAQAAGLVNAGRIGELQGHYLFVQPAGHRPALEVEAIRQQVEAVLAGHEAVRWHSEQRLLRRAKRSVHFNDPKYPQQWHLNNRRSPGRDINVTGVWERNVTGRGVTVVVVDDGVEHTIQDIAPNYSPEGSYDLNSNDPDPMPHPDVENGNHHGTRCAGEIAAVPNNSFCAVGVAYGSRIAGIRVLDGPLTDSMEAVAFNKHYQINDIYSCSWGPDDDGKTVDGPHQLGKAALQHGVIAGRQGFGSIFVVASGNGGQHNDNCNYDGYANSIYTVTIGAVDEEGRMPFYAEECASMLAVTFSGGDKMLRSIVTTDWDLQKGTGCTEGHTGTSAAAPLAAGMIALMLQVRPCLTWRDVQHIIVFTATRYEDRRAEWVTNEAGFSHSHQHGFGLLNAWRLVNAAKIWTSVPYLASYVSPVLKENKAIPQSPRSLEVLWNVSRMDLEMSGLKTLEHVAVTVSITHPRRGSLELKLFCPSGMMSLIGAPRSMDSDPNGFNDWTFSTVRCWGERARGTYRLVIRDVGDESFQVGILRQWQLTLYGSVWSAVDIRDRQRLLESAMSGKYLHDDFALPCPPGLKIPEEDGYTITPN | processes | does not fully process |  | does not fully process | ProFIX-Fc was also found in CHO FIX-Fc protein that was cotransfected with PC7, although possibly at lower levels as indicated in the UV trace | does not fully process |  | 
3 | human PC5 (PC5A), expressed from pSYN-PC5-003 (protein) RVYTNHWAVKIAGGFPEANRIASKYGFINIGQIGALKDYYHFYHSRTIKRSVISSRGTHSFISMEPKVEWIQQQVVKKRTKRDYDFSRAQSTYFNDPKWPSMWYMHCSDNTHPCQSDMNIEGAWKRGYTGKNIVVTILDDGIERTHPDLMQNYDALASCDVNGNDLDPMPRYDASNENKHGTRCAGEVAAAANNSHCTVGIAFNAKIGGVRMLDGDVTDMVEAKSVSFNPQHVHIYSASWGPDDDGKTVDGPAPLTRQAFENGVRMGRRGLGSVFVWASGNGGRSKDHCSCDGYTNSIYTISISSTAESGKKPWYLEECSSTLATTYSSGESYDKKIITTDLRQRCTDNHTGTSASAPMAAGIIALALEANPFLTWRDVQHVIVRTSRAGHLNANDWKTNAAGFKVSHLYGFGLMDAEAMVMEAEKWTTVPRQHVCVESTDRQIKTIRPNSAVRSIYKASGCSDNPNRHVNYLEHVVVRITITHPRRGDLAIYLTSPSGTRSQLLANRLFDHSMEGFKNWEFMTIHCWGERAAGDWVLEVYDTPSQLRNFKTPGKLKEWSLVLYGTSVQPYSPTNEFPKVERFRYSRVEDPTDDYGTEDYAGPCDPECSEVGCDGPGPDHCNDCLHYYYKLKNNTRICVSSCPPGHYHADKKRCRKCAPNCESCFGSHGDQCMSCKYGYFLNEETNSCVTHCPDGSYQDTKKNLCRKCSENCKTCTEFHNCTECRDGLSLQGSRCSVSCEDGRYFNGQDCQPCHRFCATCAGAGADGCINCTEGYFMEDGRCVQSCSISYYFDHSSENGYKSCKKCDISCLTCNGPGFKNCTSCPSGYLLDLGMCQMGAICKDATEESWAEGGFCMLVKKNNLCQRKVLQQLCCKTCTFQG | processes | processes |  | processes |  |  | processes | undetectable in purified FIX-Fc monomer cotransfected with PC5
